Patent US20250074957A1 (GENERAL HOSPITAL, published 2025)

B1: minCRBN3-NLuc (other, not shown: large carriers)
chain: AGEGDQQDAAHNMGNHLPLLPESEEEDEMEVEDQDSKEAKKPNIINFDTSLPTSHTYLGADMEEFHGRTLHDDDSCQVIPVLPQVMMILIPGQTLPLQLFHPQEVSMVRNLIQKDRTFAVLAYSNVQEREAQFGTTAEIYAYREEQDFGIEIVKVKAIGRQRFKVLELRTQSDGIQQAKVQILPECVLPSTYDAETLMDRIKKQLREWDENLKDDSLPSNPIDFSYRVAACLPIDDVLRIQLLKIGSAIQRLRCELDIMNKCTSLCCKQCQETEITTKNEIFSLSLCGPMAAYVNPHGYVHETLTVYKACNLNLIGRPSTEHSWFPGYAWTVAQCKICASHIGWKFTATKKDMSPQKFWGLTRSALLPTIPDTEDEISPDKVILCL
notes: also called CRBNΔ3; cytosolic (untethered) minCRBN
B2: CRBN (wild-type; endogenous in Jurkat/293T cells or re-expressed in 293T-CRBNΔe5 cells) (other)
chain: MAGEGDQQDAAHNMGNHLPLLPAESEEEDEMEVEDQDSKEAKKPNIINFDTSLPTSHTYLGADMEEFHGRTLHDDDSCQVIPVLPQVMMILIPGQTLPLQLFHPQEVSMVRNLIQKDRTFAVLAYSNVQEREAQFGTTAEIYAYREEQDFGIEIVKVKAIGRQRFKVLELRTQSDGIQQAKVQILPECVLPSTMSAVQLESLNKCQIFPSKPVSREDQCSYKWWQKYQKRKFHCANLTSWPRWLYSLYDAETLMDRIKKQLREWDENLKDDSLPSNPIDFSYRVAACLPIDDVLRIQLLKIGSAIQRLRCELDIMNKCTSLCCKQCQETEITTKNEIFSLSLCGPMAAYVNPHGYVHETLTVYKACNLNLIGRPSTEHSWFPGYAWTVAQCKICASHIGWKFTATKKDMSPQKFWGLTRSALLPTIPDTEDEISPDKVILCL
B3: IKZF3 degron polypeptide, amino acids 130-189 A153M (HaloTag fusion for BRET) (other, not shown: large carriers)
chain: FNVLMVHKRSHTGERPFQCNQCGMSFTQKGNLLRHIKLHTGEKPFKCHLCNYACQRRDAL
notes: also called IKZF3 A153M; A153M-substituted form of the IKZF3 degron
B4: CRBN-Nanoluciferase (NLuc) (other, not shown: large carriers)
chain: B2 chain
notes: Expressed inside transfected 293T cells for NanoBRET (intracellular, not on the surface); also called wild-type CRBN; wtCRBN

Key:
IKZF3aa130-189-HaloTag = biological target: T1, IKZF3aa130-189-HaloTag (Homo sapiens, UniProt A2VDW9 130-189 (bovine entry)); assay: NanoBRET in 293T-CRBNΔe5 cells, pomalidomide dose-response; the Kd is a pomalidomide concentration
T1 construct: Expressed in transfected 293T cells for NanoBRET; labelled with HaloTag NanoBRET 618 ligand; also called IKZF3 degron; degron
Experimental: (§1) Cells were then trypsinized and seeded into 96 well plates, at 40,000 cells per well. The BRET assay was performed per manufacturer's instructions (Promega™). In brief, cells were incubated for 2 hours with varying concentrations of Pomalidomide or DMSO, 10 μM MG132, and 100 nM HaloTag NanoBRET 618 Ligand. NanoBRET Nano-Glo substrate was added and donor (460 nm) and acceptor (618 nm) emission were measured within 10 minutes (EnVision, Perkin Elmer). Mean corrected milliBRET units (mBU) was calculated.

[1] = biological target: IKZF3 degron-eGFP fusion (IKZF3 degron-GFP-IRES-mCherry reporter) (Homo sapiens, UniProt A2VDW9 130-189 (bovine entry)); assay: cell-based or functional assay
CD28-IKZF3 (eGFP fusion) = assay: cell-based or functional assay
[2] = biological target: CD28-CD3z-IKZF3 (eGFP fusion); assay: cell-based or functional assay
[3] = biological target: B4; assay: NanoBRET across a range of pomalidomide concentrations
Experimental: as §1

T1 sequence (A2VDW9 130-189): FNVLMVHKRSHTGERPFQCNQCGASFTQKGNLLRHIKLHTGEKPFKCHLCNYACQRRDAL
IKZF3 degron-eGFP fusion (IKZF3 degron-GFP-IRES-mCherry reporter), sequence (A2VDW9 130-189): as above

Binder: B1
- apparent Kd (pomalidomide-dependent dimerization) (IKZF3aa130-189-HaloTag): 30 nM

Binder: B2
- EC50 of pomalidomide-dependent degradation (eGFP/mCherry ratio normalized to DMSO), Jurkat T cells [1]: 0.42 nM
- EC50 of pomalidomide-dependent degradation (eGFP/mCherry ratio normalized to DMSO), Jurkat T cells (CD28-IKZF3 (eGFP fusion)): 23.5 nM
- EC50 of pomalidomide-dependent degradation (eGFP/mCherry ratio normalized to DMSO), Jurkat T cells [2]: 8.2 nM

Binder: B3
- binding result [3]: binds

Binder: B4
- apparent Kd (pomalidomide-dependent dimerization) (IKZF3aa130-189-HaloTag): 30 nM
